According to US6864054:

Target: endogenous p53 (MRC5.SV40 cells; U-2 OS cells) (UniProt P04637)
Experiment: cell-based or functional assay

full-length CBP, P45481 2-2441, sequence (P45481 2-2441 limits assumed): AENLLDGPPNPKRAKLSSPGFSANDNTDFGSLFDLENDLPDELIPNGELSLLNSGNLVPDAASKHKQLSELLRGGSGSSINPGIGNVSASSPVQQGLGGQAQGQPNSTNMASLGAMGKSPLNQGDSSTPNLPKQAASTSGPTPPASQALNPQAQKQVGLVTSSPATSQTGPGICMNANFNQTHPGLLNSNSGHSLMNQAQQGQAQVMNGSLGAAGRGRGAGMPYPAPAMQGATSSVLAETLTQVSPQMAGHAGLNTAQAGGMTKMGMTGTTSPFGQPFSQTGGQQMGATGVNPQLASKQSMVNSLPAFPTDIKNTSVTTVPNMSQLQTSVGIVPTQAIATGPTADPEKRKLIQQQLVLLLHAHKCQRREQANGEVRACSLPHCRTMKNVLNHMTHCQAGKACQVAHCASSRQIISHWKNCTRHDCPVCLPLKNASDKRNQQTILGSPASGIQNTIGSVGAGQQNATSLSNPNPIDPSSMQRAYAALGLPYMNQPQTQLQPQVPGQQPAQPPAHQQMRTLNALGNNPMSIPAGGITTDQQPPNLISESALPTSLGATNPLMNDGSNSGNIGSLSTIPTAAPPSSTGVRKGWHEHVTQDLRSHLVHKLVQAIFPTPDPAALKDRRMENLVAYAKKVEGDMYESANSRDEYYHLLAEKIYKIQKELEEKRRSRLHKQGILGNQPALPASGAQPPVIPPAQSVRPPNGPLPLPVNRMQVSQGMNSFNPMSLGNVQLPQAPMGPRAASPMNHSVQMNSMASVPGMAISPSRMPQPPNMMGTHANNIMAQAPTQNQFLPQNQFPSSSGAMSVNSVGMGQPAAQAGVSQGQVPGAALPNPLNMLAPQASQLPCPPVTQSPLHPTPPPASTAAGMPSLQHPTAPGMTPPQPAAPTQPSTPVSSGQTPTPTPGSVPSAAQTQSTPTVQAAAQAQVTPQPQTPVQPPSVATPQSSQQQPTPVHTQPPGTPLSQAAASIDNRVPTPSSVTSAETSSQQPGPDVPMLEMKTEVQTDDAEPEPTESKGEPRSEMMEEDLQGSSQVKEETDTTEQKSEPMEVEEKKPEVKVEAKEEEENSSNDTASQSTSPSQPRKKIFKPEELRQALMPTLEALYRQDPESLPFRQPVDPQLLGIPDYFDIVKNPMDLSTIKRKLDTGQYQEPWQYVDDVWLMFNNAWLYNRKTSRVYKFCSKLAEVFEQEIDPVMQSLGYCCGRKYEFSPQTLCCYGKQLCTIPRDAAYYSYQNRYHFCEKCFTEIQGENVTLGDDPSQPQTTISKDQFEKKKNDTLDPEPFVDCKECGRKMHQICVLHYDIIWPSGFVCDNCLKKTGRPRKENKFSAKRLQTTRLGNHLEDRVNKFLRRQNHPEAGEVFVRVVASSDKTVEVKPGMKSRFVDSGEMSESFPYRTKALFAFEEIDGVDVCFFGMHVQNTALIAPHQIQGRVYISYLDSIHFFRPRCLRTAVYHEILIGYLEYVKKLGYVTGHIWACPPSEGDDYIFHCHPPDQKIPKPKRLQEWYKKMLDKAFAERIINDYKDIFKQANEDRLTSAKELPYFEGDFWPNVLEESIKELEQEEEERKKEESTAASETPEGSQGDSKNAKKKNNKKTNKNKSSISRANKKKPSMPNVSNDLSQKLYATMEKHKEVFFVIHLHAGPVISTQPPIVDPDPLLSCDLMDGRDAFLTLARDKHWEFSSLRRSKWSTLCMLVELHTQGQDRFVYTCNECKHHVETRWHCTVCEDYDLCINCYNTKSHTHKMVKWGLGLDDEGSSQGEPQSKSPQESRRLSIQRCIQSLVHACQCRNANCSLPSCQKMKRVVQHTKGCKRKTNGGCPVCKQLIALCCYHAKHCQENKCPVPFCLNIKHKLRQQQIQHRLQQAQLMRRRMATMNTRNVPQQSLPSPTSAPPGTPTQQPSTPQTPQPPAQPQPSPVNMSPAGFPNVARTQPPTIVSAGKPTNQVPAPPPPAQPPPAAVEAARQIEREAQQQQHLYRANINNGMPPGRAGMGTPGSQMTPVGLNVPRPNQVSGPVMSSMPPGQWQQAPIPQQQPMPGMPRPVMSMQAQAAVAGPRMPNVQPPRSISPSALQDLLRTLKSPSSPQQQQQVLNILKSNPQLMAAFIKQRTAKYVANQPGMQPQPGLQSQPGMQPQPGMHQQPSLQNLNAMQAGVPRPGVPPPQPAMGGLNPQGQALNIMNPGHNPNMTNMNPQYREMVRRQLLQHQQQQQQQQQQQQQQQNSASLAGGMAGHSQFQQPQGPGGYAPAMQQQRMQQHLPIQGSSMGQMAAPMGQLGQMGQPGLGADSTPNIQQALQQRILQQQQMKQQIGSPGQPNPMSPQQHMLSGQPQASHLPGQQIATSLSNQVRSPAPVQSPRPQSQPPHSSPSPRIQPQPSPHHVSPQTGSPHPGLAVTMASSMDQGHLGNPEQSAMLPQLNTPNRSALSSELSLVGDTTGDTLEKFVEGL
endogenous p53 (MRC5.SV40 cells; U-2 OS cells), sequence (P04637 whole entry): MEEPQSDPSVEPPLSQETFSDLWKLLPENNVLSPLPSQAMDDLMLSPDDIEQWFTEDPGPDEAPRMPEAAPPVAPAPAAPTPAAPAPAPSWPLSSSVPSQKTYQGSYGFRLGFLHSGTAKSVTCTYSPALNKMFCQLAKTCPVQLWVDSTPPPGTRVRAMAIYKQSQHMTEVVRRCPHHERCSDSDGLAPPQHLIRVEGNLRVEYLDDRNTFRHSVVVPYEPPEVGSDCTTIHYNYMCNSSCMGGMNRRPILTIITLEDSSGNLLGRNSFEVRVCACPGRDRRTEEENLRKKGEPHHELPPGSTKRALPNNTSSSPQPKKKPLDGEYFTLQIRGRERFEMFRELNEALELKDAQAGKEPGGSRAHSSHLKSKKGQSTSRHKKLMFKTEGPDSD

p53-dependent transcription (PG13CAT reporter, U2-OS cells): 7 fold
Substance: full-length CBP, P45481 2-2441
